The values that follow come from the supplement of paper PMC9170038.

For the data set, the system named is K4 kissing-loop RNA reporter. Put plainly: apparent KD of K4 kissing-loop reporter; higher = weaker reporter binding. The following applies: Eterna round: R107. The procedure: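 RNA-MaP round R107: designed RNA switches with theophylline, tryptophan, arginine or FMN aptamers are transcribed on-chip within common flanks. They are titrated with a labelled K4 kissing-loop RNA reporter in RNA-MaP buffer (100 mM Tris pH 7.5, 80 mM KCl, 4 mM MgCl2), without ligand or with the indicated ligand. Median apparent KD per design.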

Where [1] appears, read: input ligand: theophylline 20 uM.
[2] abbreviates: input ligand: tryptophan 2.4 mM.
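Note: bound reporter read as fluorescence of individual clusters on recovered sequencing chips by microscopy, with normalized cluster intensities fitted with a binding model.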

Turning to “AUUGUAUACUGAAGGAGCGAGUAGUGGAAACAUAAACUCAUUGCGAGUGAUGUUCGCAGUACUCAGGUAGGUCGCAGUAAUGGUA [Exclusion Arginine B Gf 9]”, the “apparent KD of K4 kissing-loop reporter” value by setting is: (input ligand: FMN 200 uM) 756 nM; (input ligand: arginine 13.2 mM) 167 nM; (input ligand: none) 528 nM; under setting [1], 242 nM; under setting [2], 451 nM.
For the sequence “AUUUAAUGUAUAGAUUAUAUACAUUAUUCAGAGGAUAUGCAUUGAAGCAGAAGGCUGGAUGUAGUGAUGUUGCAAUUUUAAUUUA [JR_SSFMNA_Sub007]”, the “apparent KD of K4 kissing-loop reporter” value reads like this: (input ligand: FMN 200 uM) 205 nM; (input ligand: arginine 13.2 mM) 247 nM; (input ligand: none) 218 nM; under setting [1], 299 nM; under setting [2], 143 nM.
Take “AUUUAUUCGAGUGAUGUUCGUGUUUUUUCAGAGGAUAUGCGUAAUAGCAGAAGGCUGUUUUAUAUUAUAUUUUGAUUUUUUUAAA [JR_Nu_ExcFMNA_Sub025]”: the “apparent KD of K4 kissing-loop reporter” value runs as follows: (input ligand: FMN 200 uM) 92.2 nM; (input ligand: arginine 13.2 mM) 123 nM; (input ligand: none) 86.1 nM; under setting [1], 106 nM; under setting [2], 73.5 nM.
Taken in the same sequence, the figures for “AUUUGCUAGAAAGGAUAUAUUAGCUUGGUCACCGCGUCCGAUGGUUAAACUUCGUGAGUGAUGUUCAUAGAAGGUUCAGCCUCGA [theeternabot_exclusion_KL_FMN_B_20]” were 155 nM, 122 nM, 146 nM, 138 nM and 124 nM.
For “AUUUUAAUCGCAGAUACCAGUCCAGAAUGAAUACUAUAGUGAUGUUAUAAUAAAGGGAAGGACCCUUGGCAGCUGUACUAUAUUA [AstrosSsTheB#9]”, in that order: 467 nM, 287 nM, 445 nM, 304 nM and 281 nM.
In the case of “AUUUUAGAGUGAUGUUCUAAUUGAUCAGAUACCAGACAAUUAUAAGUCCCUUGGCAGCUGUAGCCGAUAAAUUUAUUUAAUUUAA [JR_SSTheophyA_Sub024]”, the “apparent KD of K4 kissing-loop reporter” value (input ligand: FMN 200 uM) turned out to be 229 nM; the “apparent KD of K4 kissing-loop reporter” value (input ligand: arginine 13.2 mM) is 275 nM; the “apparent KD of K4 kissing-loop reporter” value (input ligand: none) was 302 nM; the “apparent KD of K4 kissing-loop reporter” value under setting [1] amounted to 373 nM; the “apparent KD of K4 kissing-loop reporter” value under setting [2] came to 225 nM.
With “AUUUUAGAGUGAUGUUCUAUUUGAUCAGAUACCAGACAAUUAUAAGUCCCUUGGCAGCUGUAGCCGAUAAAUUUAAUUAAUUUAA [JR_ExcTheophyA_Sub012]”, the “apparent KD of K4 kissing-loop reporter” value was 132 nM (input ligand: FMN 200 uM); 223 nM (input ligand: arginine 13.2 mM); 158 nM (input ligand: none); 205 nM under setting [1]; 130 nM under setting [2].
In the case of “AUUUUUUUAUCAGGAUAUUAGUGAUGGUUUUUUUUGUUAGUGAUGUUGAUAUUUGUUUUAUGUAUUUAAGAAGGGAUUGAGAUGU [tzzsullin]”, the “apparent KD of K4 kissing-loop reporter” value was found to be 120 nM (input ligand: FMN 200 uM); 41.2 nM (input ligand: arginine 13.2 mM); 56.9 nM (input ligand: none); 64.4 nM under setting [1]; 84.2 nM under setting [2].
For “AUUUUUUUGUCAGGAUAUUAGUGUUGGUUUGGUUUGUUAGUGAUGUUGAUAUUUGUUUUAUGUAUUUAAGAAGGGAUUUAGAUGU [zaahullin]”, the “apparent KD of K4 kissing-loop reporter” value runs as follows: (input ligand: FMN 200 uM) 428 nM; (input ligand: arginine 13.2 mM) 330 nM; (input ligand: none) 335 nM; under setting [1], 407 nM; under setting [2], 293 nM.
As to “CAAUGAGUAUAAGAUGAUAUCAUCACAGAAGGAGCGAGUGAUAACUCAGGUAGGUCGCUGAAUUUGUCGAGUGAUGUUCGAUAGA [whbob_SS_Arginine_A_sa119]”, the “apparent KD of K4 kissing-loop reporter” value is, setting by setting: (input ligand: FMN 200 uM) 209 nM; (input ligand: arginine 13.2 mM) 173 nM; (input ligand: none) 204 nM; under setting [1], 188 nM; under setting [2], 182 nM.
Taken in the same sequence, the figures for “CAAUGAGUUUAAGAUGAUAUCAUCACAGAAGGAGCGAGUGAUAACUCAGGUAGGUCGCUGAAUUUGUCGAGUGAUGUUCGAUAGA [whbob_SS_Arginine_A_sa120]” were 191 nM, 153 nM, 186 nM, 166 nM and 174 nM.
Taken in the same sequence, the figures for “CACCCUGGACAAGGAUAUAUCAUGCGCCAAGGGCAGUGAUGUUGCCACAGGCUUGGGUCCAGUUCGAUAGAAGGUGUCUGGUAUU [theeternabot_sameState_KL_FMN_B_4]” were 203 nM, 174 nM, 244 nM, 159 nM and 183 nM.
Regarding “CACGAUGAAUUCUCUAGGAGUGAUGUUUUUCGAGGACCGGUACGGCCGCCACUCGGACCACGAGCGUGGUAGCGGCGAAAAGACU [qpmullin]”, the “apparent KD of K4 kissing-loop reporter” value amounted to 782 nM (input ligand: FMN 200 uM); 464 nM (input ligand: arginine 13.2 mM); 629 nM (input ligand: none); 443 nM under setting [1]; 1070 nM under setting [2].
On to “CACGAUGAAUUCUCUAGGAGUGAUGUUUUUCGAGGACCGGUACGGCCGCCACUCGGACGACGAGCGUGGUAGCGGGCUGAAGACU [iuullin]”, for which the “apparent KD of K4 kissing-loop reporter” value (input ligand: FMN 200 uM) amounted to 521 nM; the “apparent KD of K4 kissing-loop reporter” value (input ligand: arginine 13.2 mM) stood at 205 nM; the “apparent KD of K4 kissing-loop reporter” value (input ligand: none) was 1120 nM; the “apparent KD of K4 kissing-loop reporter” value under setting [1] was determined as 674 nM; the “apparent KD of K4 kissing-loop reporter” value under setting [2] was found to be 771 nM.
Turning to “CAGACCACAGAGUGAUGUUCUGUGUCCGAAGGAGCGCGCGAGAGCGCAGGUAGGUCGCGGAUACAGUUGACGUACCUUCAAGACA [Arg A Ex t3]”, the “apparent KD of K4 kissing-loop reporter” value turned out to be 193 nM (input ligand: FMN 200 uM); 179 nM (input ligand: arginine 13.2 mM); 205 nM (input ligand: none); 230 nM under setting [1]; 219 nM under setting [2].
Turning to “CAGAUAACCUAGGAUACCAGCGUCGCUGACAGGUCGCUGGAGAAGUACAGUGAUGUUGUGCGCCCUUGGCAGCCUGUUUACACAG [theeternabot_exclusion_KL_Theo_B_32]”, the “apparent KD of K4 kissing-loop reporter” value by setting is: (input ligand: FMN 200 uM) 255 nM; (input ligand: arginine 13.2 mM) 204 nM; (input ligand: none) 223 nM; under setting [1], 207 nM; under setting [2], 198 nM.
Take “CAGCAGAGUGAUGUUCUGCUUACUGCGGAUACCAGCUUUGCCAGAGGCCCUUGGCAGCCGGGCGGCUCAGUGAUGUUGGGUUGUU [Same State Theophylline A GF 14]”: the “apparent KD of K4 kissing-loop reporter” value (input ligand: FMN 200 uM) worked out at 234 nM; the “apparent KD of K4 kissing-loop reporter” value (input ligand: arginine 13.2 mM) was determined as 140 nM; the “apparent KD of K4 kissing-loop reporter” value (input ligand: none) amounted to 186 nM; the “apparent KD of K4 kissing-loop reporter” value under setting [1] amounted to 208 nM; the “apparent KD of K4 kissing-loop reporter” value under setting [2] worked out at 167 nM.
As for “CAGCGGAGUGAUGUUCUGCUUACUCCGGAUACCAGCUUCGCCAGAGGCCCUUGGCAGCCGGGCGGCUCAGUGAUGUUGGGUUGCU [Same State Theophylline A GF 16]”, the “apparent KD of K4 kissing-loop reporter” value (input ligand: FMN 200 uM) worked out at 934 nM; the “apparent KD of K4 kissing-loop reporter” value (input ligand: arginine 13.2 mM) amounted to 532 nM; the “apparent KD of K4 kissing-loop reporter” value (input ligand: none) was 870 nM; the “apparent KD of K4 kissing-loop reporter” value under setting [1] was determined as 979 nM; the “apparent KD of K4 kissing-loop reporter” value under setting [2] stood at 765 nM.
Consider “CAGGUCACAGAGUGAUGUUCUGUGUCCGAAGGAGCGAUGGUCGCAUCAGGUAGGUCGCGGAUACAGUUGAAGUCCUAUCUAGACG [#10 K4 Arginine A Exclusion]”, for which the “apparent KD of K4 kissing-loop reporter” value is, setting by setting: (input ligand: FMN 200 uM) 143 nM; (input ligand: arginine 13.2 mM) 111 nM; (input ligand: none) 119 nM; under setting [1], 123 nM; under setting [2], 134 nM.
Regarding “CAUACGCAUGGAGGAUAUGAGAUUUCUCAUAUUAUUGUUUAUUCUCAGUGAUGUUGGGAUUUAAACUCAGAAGGCCAUGUGUAUG [Ex FMN B 9]”, the “apparent KD of K4 kissing-loop reporter” value (input ligand: FMN 200 uM) is 273 nM; the “apparent KD of K4 kissing-loop reporter” value (input ligand: arginine 13.2 mM) stood at 124 nM; the “apparent KD of K4 kissing-loop reporter” value (input ligand: none) stood at 138 nM; the “apparent KD of K4 kissing-loop reporter” value under setting [1] is 137 nM; the “apparent KD of K4 kissing-loop reporter” value under setting [2] worked out at 132 nM.
Taken in the same sequence, the figures for “CAUACUUGCCGACCGCGGCACGCUAGUGAUACCAGUAACACCGUCUACCCUUGGCAGCACGAGAGAGUGAUGUUUUCAGCAGCCA [theeternabot_sameState_KL_Theo_A_3]” were 1030 nM, 722 nM, 982 nM, 736 nM and 857 nM.
